Source: the supplement of paper PMC9112550, “Optimization of the antimicrobial peptide Bac7 by deep mutational scanning” (BMC Biology, 2022)

What follows are sequences tested on Escherichia coli TOP10 (assay: shrunken log2 fold change of peptide-encoding DNA abundance (4.5 h post-induction vs induction); higher = less antimicrobial activity (less host growth inhibition)). Settings: time post-induction: 4.5 h; library: site-saturation at positions 5, 18, 19, 20.
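Further: peptides expressed intracellularly from a pBAD plasmid library in pooled LB shake-flask culture, induced with 0.3% L-arabinose, DNA abundance read by NGS, three biological replicates, DESeq2 with apeglm shrinkage.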

Row | Sequence | shrunken log2 fold change
1 | RRIRWRPPRLPRPRPRPYLTPRP | -0.089
2 | RRIRWRPPRLPRPRPRPYMDPRP | -0.551
3 | RRIRWRPPRLPRPRPRPYMQPRP | -0.422
4 | RRIRWRPPRLPRPRPRPYNEPRP | -0.13
5 | RRIRWRPPRLPRPRPRPYNWPRP | -1.06
6 | RRIRWRPPRLPRPRPRPYQLPRP | -0.26
7 | RRIRWRPPRLPRPRPRPYQSPRP | -0.583
8 | RRIRWRPPRLPRPRPRPYRYPRP | 0.0299
9 | RRIRWRPPRLPRPRPRPYSYPRP | -0.00188
10 | RRIRWRPPRLPRPRPRPYWFPRP | -0.0484
11 | RRIRWRPPRLPRPRPRPYWRPRP | 0.00194
12 | RRIRYRPPRLPRPRPRPACEPRP | -0.0778
13 | RRIRYRPPRLPRPRPRPACTPRP | -0.292
14 | RRIRYRPPRLPRPRPRPADNPRP | -0.938
15 | RRIRYRPPRLPRPRPRPADVPRP | -0.127
16 | RRIRYRPPRLPRPRPRPADYPRP | 3.66
17 | RRIRYRPPRLPRPRPRPAEAPRP | 0.0062
18 | RRIRYRPPRLPRPRPRPAEHPRP | -0.0954
19 | RRIRYRPPRLPRPRPRPAEVPRP | -0.0361
20 | RRIRYRPPRLPRPRPRPAFCPRP | -0.1
21 | RRIRYRPPRLPRPRPRPAFNPRP | -0.431
22 | RRIRYRPPRLPRPRPRPAGLPRP | 0.125
23 | RRIRYRPPRLPRPRPRPAHGPRP | 0.1
24 | RRIRYRPPRLPRPRPRPAIRPRP | -0.0189
25 | RRIRYRPPRLPRPRPRPAKSPRP | -0.156

Row | Sequence | shrunken log2 fold change
26 | RRIRYRPPRLPRPRPRPALIPRP | -0.273
27 | RRIRYRPPRLPRPRPRPALNPRP | -0.541
28 | RRIRYRPPRLPRPRPRPAMQPRP | -0.0244
29 | RRIRYRPPRLPRPRPRPAMVPRP | -0.136
30 | RRIRYRPPRLPRPRPRPANEPRP | 0.0338
31 | RRIRYRPPRLPRPRPRPAPCPRP | -0.0799
32 | RRIRYRPPRLPRPRPRPAPNPRP | -0.01
33 | RRIRYRPPRLPRPRPRPAQWPRP | -0.294
34 | RRIRYRPPRLPRPRPRPARCPRP | 0.0957
35 | RRIRYRPPRLPRPRPRPARKPRP | -0.486
36 | RRIRYRPPRLPRPRPRPASGPRP | -0.148
37 | RRIRYRPPRLPRPRPRPASLPRP | -0.662
38 | RRIRYRPPRLPRPRPRPASRPRP | -0.0366
39 | RRIRYRPPRLPRPRPRPATGPRP | 0.337
40 | RRIRYRPPRLPRPRPRPATIPRP | -1.16
41 | RRIRYRPPRLPRPRPRPATSPRP | -0.452
42 | RRIRYRPPRLPRPRPRPATYPRP | -0.113
43 | RRIRYRPPRLPRPRPRPAVCPRP | -0.0135
44 | RRIRYRPPRLPRPRPRPAWFPRP | -0.0816
45 | RRIRYRPPRLPRPRPRPAWVPRP | 0.0366
46 | RRIRYRPPRLPRPRPRPCASPRP | -0.12
47 | RRIRYRPPRLPRPRPRPCCEPRP | -0.567
48 | RRIRYRPPRLPRPRPRPCFGPRP | -0.0967
49 | RRIRYRPPRLPRPRPRPCHPPRP | -0.669
50 | RRIRYRPPRLPRPRPRPCIGPRP | -0.644

Row | Sequence | shrunken log2 fold change
51 | RRIRYRPPRLPRPRPRPCKTPRP | -0.154
52 | RRIRYRPPRLPRPRPRPCKWPRP | -0.063
53 | RRIRYRPPRLPRPRPRPCKYPRP | -0.627
54 | RRIRYRPPRLPRPRPRPCLRPRP | -0.286
55 | RRIRYRPPRLPRPRPRPCNEPRP | 0.0341
56 | RRIRYRPPRLPRPRPRPCNFPRP | -0.303
57 | RRIRYRPPRLPRPRPRPCNIPRP | -0.463
58 | RRIRYRPPRLPRPRPRPCNKPRP | -0.0167
59 | RRIRYRPPRLPRPRPRPCNQPRP | -0.224
60 | RRIRYRPPRLPRPRPRPCQHPRP | -0.253
61 | RRIRYRPPRLPRPRPRPCSCPRP | -0.155
62 | RRIRYRPPRLPRPRPRPCTNPRP | 0.0527
63 | RRIRYRPPRLPRPRPRPCTRPRP | -0.111
64 | RRIRYRPPRLPRPRPRPCTYPRP | -0.194
65 | RRIRYRPPRLPRPRPRPCWEPRP | -0.288
66 | RRIRYRPPRLPRPRPRPCWHPRP | -0.0701
67 | RRIRYRPPRLPRPRPRPCWVPRP | -0.158
68 | RRIRYRPPRLPRPRPRPCYAPRP | -0.00203
69 | RRIRYRPPRLPRPRPRPCYSPRP | -0.00871
70 | RRIRYRPPRLPRPRPRPDALPRP | -0.212
71 | RRIRYRPPRLPRPRPRPDAMPRP | -0.0326
72 | RRIRYRPPRLPRPRPRPDCLPRP | -0.209
73 | RRIRYRPPRLPRPRPRPDCSPRP | -0.315
74 | RRIRYRPPRLPRPRPRPDCWPRP | -0.105
75 | RRIRYRPPRLPRPRPRPDDGPRP | 0.0672

Row | Sequence | shrunken log2 fold change
76 | RRIRYRPPRLPRPRPRPDEGPRP | -0.226
77 | RRIRYRPPRLPRPRPRPDFAPRP | 0.0515
78 | RRIRYRPPRLPRPRPRPDFMPRP | -2.08
79 | RRIRYRPPRLPRPRPRPDHMPRP | -0.552
80 | RRIRYRPPRLPRPRPRPDIMPRP | -1.15
81 | RRIRYRPPRLPRPRPRPDLNPRP | -0.0755
82 | RRIRYRPPRLPRPRPRPDMQPRP | 0.0426
83 | RRIRYRPPRLPRPRPRPDPGPRP | -0.124
84 | RRIRYRPPRLPRPRPRPDPSPRP | -0.566
85 | RRIRYRPPRLPRPRPRPDRQPRP | -0.0345
86 | RRIRYRPPRLPRPRPRPDSFPRP | 0.0025
87 | RRIRYRPPRLPRPRPRPDTFPRP | -0.016
88 | RRIRYRPPRLPRPRPRPDVLPRP | 0.0494
89 | RRIRYRPPRLPRPRPRPDWIPRP | -0.589
90 | RRIRYRPPRLPRPRPRPDWKPRP | -0.208
91 | RRIRYRPPRLPRPRPRPDYQPRP | 0.0202
92 | RRIRYRPPRLPRPRPRPEAMPRP | -0.0891
93 | RRIRYRPPRLPRPRPRPEDHPRP | -0.581
94 | RRIRYRPPRLPRPRPRPEDWPRP | -0.252
95 | RRIRYRPPRLPRPRPRPEFQPRP | -0.47
96 | RRIRYRPPRLPRPRPRPEGTPRP | -0.0176
97 | RRIRYRPPRLPRPRPRPEHKPRP | -0.605
98 | RRIRYRPPRLPRPRPRPEISPRP | -0.00407
99 | RRIRYRPPRLPRPRPRPEKAPRP | 0.00447
100 | RRIRYRPPRLPRPRPRPELMPRP | -0.128

Row | Sequence | shrunken log2 fold change
101 | RRIRYRPPRLPRPRPRPEMIPRP | 0.0135
102 | RRIRYRPPRLPRPRPRPENMPRP | -0.134
103 | RRIRYRPPRLPRPRPRPEPQPRP | -0.777
104 | RRIRYRPPRLPRPRPRPEPRPRP | 0.408
105 | RRIRYRPPRLPRPRPRPEQHPRP | -0.0567
106 | RRIRYRPPRLPRPRPRPEQRPRP | -0.067
107 | RRIRYRPPRLPRPRPRPERFPRP | 0.0461
108 | RRIRYRPPRLPRPRPRPERWPRP | 0.44
109 | RRIRYRPPRLPRPRPRPESDPRP | 0.03
110 | RRIRYRPPRLPRPRPRPESEPRP | -0.0162
111 | RRIRYRPPRLPRPRPRPESNPRP | -0.23
112 | RRIRYRPPRLPRPRPRPETTPRP | -0.289
113 | RRIRYRPPRLPRPRPRPEVDPRP | -0.191
114 | RRIRYRPPRLPRPRPRPEVFPRP | -0.0536
115 | RRIRYRPPRLPRPRPRPEVNPRP | -0.0081
116 | RRIRYRPPRLPRPRPRPEWRPRP | 0.172
117 | RRIRYRPPRLPRPRPRPFASPRP | -0.000244
118 | RRIRYRPPRLPRPRPRPFCGPRP | -0.133
119 | RRIRYRPPRLPRPRPRPFHWPRP | 0.0011
120 | RRIRYRPPRLPRPRPRPFIAPRP | -1.12
121 | RRIRYRPPRLPRPRPRPFLDPRP | -0.00748
122 | RRIRYRPPRLPRPRPRPFLFPRP | -0.704
123 | RRIRYRPPRLPRPRPRPFLHPRP | -0.786
124 | RRIRYRPPRLPRPRPRPFNQPRP | -0.0309
125 | RRIRYRPPRLPRPRPRPFREPRP | -0.35

Row | Sequence | shrunken log2 fold change
126 | RRIRYRPPRLPRPRPRPFSVPRP | -0.313
127 | RRIRYRPPRLPRPRPRPFSWPRP | -0.235
128 | RRIRYRPPRLPRPRPRPFWIPRP | -0.0013
129 | RRIRYRPPRLPRPRPRPFWWPRP | -0.102
130 | RRIRYRPPRLPRPRPRPFYRPRP | -0.0056
131 | RRIRYRPPRLPRPRPRPGAIPRP | -0.284
132 | RRIRYRPPRLPRPRPRPGASPRP | -0.313
133 | RRIRYRPPRLPRPRPRPGEAPRP | 0.124
134 | RRIRYRPPRLPRPRPRPGGRPRP | -0.019
135 | RRIRYRPPRLPRPRPRPGGTPRP | -0.0623
136 | RRIRYRPPRLPRPRPRPGKDPRP | -0.148
137 | RRIRYRPPRLPRPRPRPGLEPRP | 0.114
138 | RRIRYRPPRLPRPRPRPGMIPRP | -0.252
139 | RRIRYRPPRLPRPRPRPGMQPRP | -0.224
140 | RRIRYRPPRLPRPRPRPGMSPRP | -0.137
141 | RRIRYRPPRLPRPRPRPGMYPRP | -1.44
142 | RRIRYRPPRLPRPRPRPGQDPRP | -0.346
143 | RRIRYRPPRLPRPRPRPGQVPRP | -0.0686
144 | RRIRYRPPRLPRPRPRPGSIPRP | -0.606
145 | RRIRYRPPRLPRPRPRPGTTPRP | -0.0671
146 | RRIRYRPPRLPRPRPRPGVTPRP | -0.048
147 | RRIRYRPPRLPRPRPRPGWMPRP | -0.000507
148 | RRIRYRPPRLPRPRPRPGWRPRP | 0.386
149 | RRIRYRPPRLPRPRPRPGYAPRP | -0.456
150 | RRIRYRPPRLPRPRPRPGYTPRP | 0.0577
